# Measured values published in PMC9482650, “Quantitative fragmentomics allow affinity mapping of interactomes” (Nature Communications, 2022).
# T1: CARD11, Q9BXL7
# T1 sequence (Q9BXL7 662-765, limits assumed, looked up): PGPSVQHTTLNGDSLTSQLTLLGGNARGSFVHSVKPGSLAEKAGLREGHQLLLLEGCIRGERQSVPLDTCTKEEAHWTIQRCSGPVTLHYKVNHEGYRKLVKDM
# T2: DFNB31_1, Q9P202
# T2 sequence (Q9P202 135-233, limits assumed, looked up): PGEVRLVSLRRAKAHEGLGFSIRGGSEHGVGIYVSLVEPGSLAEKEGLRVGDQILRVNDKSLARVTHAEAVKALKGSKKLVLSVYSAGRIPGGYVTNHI
# T3: DVL3, Q92997
# T3 sequence (Q92997 244-331, limits assumed, looked up): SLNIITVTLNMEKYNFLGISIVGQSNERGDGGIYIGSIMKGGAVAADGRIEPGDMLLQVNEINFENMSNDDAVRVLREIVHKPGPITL
# T4: GRIP1_7, Q9Y3R0
# T4 sequence (Q9Y3R0 999-1096, limits assumed, looked up): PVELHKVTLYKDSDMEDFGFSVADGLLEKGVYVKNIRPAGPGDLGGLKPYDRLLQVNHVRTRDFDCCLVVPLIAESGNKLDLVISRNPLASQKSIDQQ
# T5: LRRC7, Q96NW7
# T5 sequence (Q96NW7 1440-1537, limits assumed, looked up): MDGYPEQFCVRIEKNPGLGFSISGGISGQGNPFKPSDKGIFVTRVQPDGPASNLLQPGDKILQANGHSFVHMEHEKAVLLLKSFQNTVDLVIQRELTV
# T6: MPDZ_12, O75970
# T6 sequence (O75970 1857-1958, limits assumed, looked up): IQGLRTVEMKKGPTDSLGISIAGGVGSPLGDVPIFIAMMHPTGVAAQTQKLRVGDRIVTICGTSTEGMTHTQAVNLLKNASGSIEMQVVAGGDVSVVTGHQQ
# T7: MPP7, Q5T2T1
# T7 sequence (Q5T2T1 134-230, limits assumed, looked up): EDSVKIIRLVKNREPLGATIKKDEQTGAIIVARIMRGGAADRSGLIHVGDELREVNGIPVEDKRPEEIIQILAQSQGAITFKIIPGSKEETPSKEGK
# T8: PCLO, Q9Y6V0
# T8 sequence (Q9Y6V0 4491-4600, limits assumed, looked up): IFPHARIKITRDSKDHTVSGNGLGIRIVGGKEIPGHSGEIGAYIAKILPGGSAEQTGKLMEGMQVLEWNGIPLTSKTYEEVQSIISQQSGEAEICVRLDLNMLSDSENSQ
# T9: RHPN1, Q8TCX5
# T9 sequence (Q8TCX5 508-602, limits assumed, looked up): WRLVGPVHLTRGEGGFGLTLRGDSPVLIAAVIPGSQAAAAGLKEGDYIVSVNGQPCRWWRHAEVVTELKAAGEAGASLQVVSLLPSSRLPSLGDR
# B1: ARHGAP17, Q68EM7 (peptide)
# chain: IDNDTESTAL
# B2: ABCC4, O15439 (peptide)
# chain: STLTIFETAL
# B3: MYO18A, Q92614 (peptide)
# chain: TEAKLTETNA
# Tests used:
# Assay in all cases: holdup assay
# Set-up in all cases: key: below the threshold = too weak to quantify, mostly under pKd 3.1 to 4
# CARD11, Q9BXL7 = biological target: T1, CARD11, Q9BXL7
# CASK, O14936 = biological target: CASK, O14936
# Chain of CASK, O14936 (O14936 487-570): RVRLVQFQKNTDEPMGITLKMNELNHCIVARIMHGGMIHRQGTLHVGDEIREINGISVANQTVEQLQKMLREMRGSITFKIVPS
# DFNB31_1, Q9P202 = biological target: T2, DFNB31_1, Q9P202
# DLG2_2, Q15700 = biological target: DLG2_2, Q15700
# DLG2_3, Q15700 = biological target: DLG2_3, Q15700
# DVL3, Q92997 = biological target: T3, DVL3, Q92997
# FRMPD2_2, Q68DX3 = biological target: FRMPD2_2, Q68DX3
# Chain of FRMPD2_2, Q68DX3 (Q68DX3 944-1038): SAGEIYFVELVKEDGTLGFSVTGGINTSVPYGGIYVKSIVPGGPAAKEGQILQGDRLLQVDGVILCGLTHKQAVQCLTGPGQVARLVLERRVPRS
# FRMPD4, Q14CM0 = biological target: FRMPD4, Q14CM0
# Chain of FRMPD4, Q14CM0 (Q14CM0 67-160): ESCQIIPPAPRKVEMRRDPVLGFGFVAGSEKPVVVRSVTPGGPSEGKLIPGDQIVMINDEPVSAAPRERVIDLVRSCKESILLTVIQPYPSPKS
# GORASP2, Q9H8Y8 = biological target: GORASP2, Q9H8Y8
# GRASP, Q7Z6J2 = biological target: GRASP, Q7Z6J2
# Chain of GRASP, Q7Z6J2 (Q7Z6J2 96-193): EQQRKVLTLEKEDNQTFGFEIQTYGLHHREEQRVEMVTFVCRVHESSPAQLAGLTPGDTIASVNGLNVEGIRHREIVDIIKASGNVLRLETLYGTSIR
# GRIP1_7, Q9Y3R0 = biological target: T4, GRIP1_7, Q9Y3R0
# IL16_1, Q14005 = biological target: IL16_1, Q14005
# Chain of IL16_1, Q14005 (Q14005 210-306): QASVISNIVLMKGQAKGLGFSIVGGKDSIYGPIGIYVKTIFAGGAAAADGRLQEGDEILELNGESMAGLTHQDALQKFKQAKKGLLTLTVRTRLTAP
# IL16_4, Q14005 = biological target: IL16_4, Q14005
# Chain of IL16_4, Q14005 (Q14005 1229-1329): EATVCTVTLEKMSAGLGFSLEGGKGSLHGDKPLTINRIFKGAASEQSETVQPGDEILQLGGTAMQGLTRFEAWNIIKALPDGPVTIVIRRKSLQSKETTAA
# Inadl_1, Q8NI35 = biological target: Inadl_1, Q8NI35
# Chain of Inadl_1, Q8NI35 (Q8NI35 113-229): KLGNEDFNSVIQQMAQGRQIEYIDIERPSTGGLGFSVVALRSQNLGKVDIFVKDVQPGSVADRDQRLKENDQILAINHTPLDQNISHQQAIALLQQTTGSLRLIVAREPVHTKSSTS
# Inadl_4, Q8NI35 = biological target: Inadl_4, Q8NI35
# Chain of Inadl_4, Q8NI35 (Q8NI35 547-651): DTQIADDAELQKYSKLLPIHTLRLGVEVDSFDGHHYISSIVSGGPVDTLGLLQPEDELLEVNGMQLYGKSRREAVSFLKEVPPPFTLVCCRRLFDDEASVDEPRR
# LIMK2, P53671 = biological target: LIMK2, P53671
# Chain of LIMK2, P53671 (P53671 143-248): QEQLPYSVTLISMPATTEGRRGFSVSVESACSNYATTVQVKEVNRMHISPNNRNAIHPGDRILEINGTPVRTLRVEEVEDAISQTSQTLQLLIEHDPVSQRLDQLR
# LRRC7, Q96NW7 = biological target: T5, LRRC7, Q96NW7
# MAGI1_2, Q96QZ7 = biological target: MAGI1_2, Q96QZ7
# Chain of MAGI1_2, Q96QZ7 (Q96QZ7 456-580): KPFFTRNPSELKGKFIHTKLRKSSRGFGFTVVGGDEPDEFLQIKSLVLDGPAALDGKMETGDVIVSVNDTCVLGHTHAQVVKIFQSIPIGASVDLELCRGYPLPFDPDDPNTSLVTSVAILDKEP
# MAGI2_2, Q86UL8 = biological target: MAGI2_2, Q86UL8
# Chain of MAGI2_2, Q86UL8 (Q86UL8 410-522): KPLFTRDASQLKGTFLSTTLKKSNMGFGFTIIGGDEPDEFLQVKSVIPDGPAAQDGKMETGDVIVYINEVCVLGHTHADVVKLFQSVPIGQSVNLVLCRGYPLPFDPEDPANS
# MAST1, Q9Y2H9 = biological target: MAST1, Q9Y2H9
# Chain of MAST1, Q9Y2H9 (Q9Y2H9 962-1065): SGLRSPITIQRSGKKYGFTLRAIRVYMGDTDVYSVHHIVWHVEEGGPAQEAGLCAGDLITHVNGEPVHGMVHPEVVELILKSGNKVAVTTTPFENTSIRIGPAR
# MAST2, Q6P0Q8 = biological target: MAST2, Q6P0Q8
# Chain of MAST2, Q6P0Q8 (Q6P0Q8 1099-1202): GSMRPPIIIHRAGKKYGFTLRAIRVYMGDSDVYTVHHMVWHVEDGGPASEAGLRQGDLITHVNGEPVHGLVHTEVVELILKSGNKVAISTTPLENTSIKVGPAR
# MPDZ_12, O75970 = biological target: T6, MPDZ_12, O75970
# MPP7, Q5T2T1 = biological target: T7, MPP7, Q5T2T1
# NHERF2_2, Q15599 = biological target: NHERF2_2, Q15599
# Chain of NHERF2_2, Q15599 (Q15599 142-238): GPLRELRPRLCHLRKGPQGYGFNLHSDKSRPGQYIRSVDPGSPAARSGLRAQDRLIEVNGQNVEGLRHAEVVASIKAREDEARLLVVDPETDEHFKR
# NOS1, P29475 = biological target: NOS1, P29475
# Chain of NOS1, P29475 (P29475 9-101): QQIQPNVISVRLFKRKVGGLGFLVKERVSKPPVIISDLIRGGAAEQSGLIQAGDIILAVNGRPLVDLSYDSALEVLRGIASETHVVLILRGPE
# PCLO, Q9Y6V0 = biological target: T8, PCLO, Q9Y6V0
# PTPN3, P26045 = biological target: PTPN3, P26045
# Chain of PTPN3, P26045 (P26045 505-587): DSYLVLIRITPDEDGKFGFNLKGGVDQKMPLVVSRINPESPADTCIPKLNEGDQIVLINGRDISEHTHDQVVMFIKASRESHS
# RHPN1, Q8TCX5 = biological target: T9, RHPN1, Q8TCX5
# SCRIB_1, Q14160 = biological target: SCRIB_1, Q14160
# Chain of SCRIB_1, Q14160 (Q14160 718-814): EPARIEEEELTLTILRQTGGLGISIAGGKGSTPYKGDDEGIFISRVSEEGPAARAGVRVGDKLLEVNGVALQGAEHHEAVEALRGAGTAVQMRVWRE
# TJP1_3, Q07157 = biological target: TJP1_3, Q07157
# Chain of TJP1_3, Q07157 (Q07157 416-512): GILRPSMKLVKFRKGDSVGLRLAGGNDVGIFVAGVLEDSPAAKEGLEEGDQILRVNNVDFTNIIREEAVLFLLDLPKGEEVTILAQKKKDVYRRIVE
# [1] = plain residues with an end cap or a label only (N-terminal biotin on a linker: ttds)
# [2] = plain residues with an end cap or a label only (N-terminal biotin on a linker: ahx)
binder,measurement,setting,value
B1,pKd,"CARD11, Q9BXL7; [1]",below the threshold
same,pKd,"CASK, O14936; [1]",below the threshold
same,pKd,"DFNB31_1, Q9P202; [1]",3.84
same,pKd,"DLG2_2, Q15700; [1]",below the threshold
same,pKd,"DLG2_3, Q15700; [1]",below the threshold
same,pKd,"DVL3, Q92997; [1]",below the threshold
same,pKd,"FRMPD2_2, Q68DX3; [1]",below the threshold
same,pKd,"FRMPD4, Q14CM0; [1]",4.45
same,pKd,"GORASP2, Q9H8Y8; [1]",below the threshold
same,pKd,"GRASP, Q7Z6J2; [1]",4.77
same,pKd,"GRIP1_7, Q9Y3R0; [1]",3.51
same,pKd,"IL16_1, Q14005; [1]",below the threshold
same,pKd,"IL16_4, Q14005; [1]",below the threshold
same,pKd,"Inadl_1, Q8NI35; [1]",below the threshold
same,pKd,"Inadl_4, Q8NI35; [1]",below the threshold
same,pKd,"LIMK2, P53671; [1]",below the threshold
same,pKd,"LRRC7, Q96NW7; [1]",below the threshold
same,pKd,"MAGI1_2, Q96QZ7; [1]",below the threshold
same,pKd,"MAGI2_2, Q86UL8; [1]",below the threshold
same,pKd,"MAST1, Q9Y2H9; [1]",4.91
same,pKd,"MAST2, Q6P0Q8; [1]",below the threshold
same,pKd,"MPDZ_12, O75970; [1]",below the threshold
same,pKd,"MPP7, Q5T2T1; [1]",below the threshold
same,pKd,"NHERF2_2, Q15599; [1]",5.24
same,pKd,"NOS1, P29475; [1]",3.95
same,pKd,"PCLO, Q9Y6V0; [1]",below the threshold
same,pKd,"PTPN3, P26045; [1]",4.76
same,pKd,"RHPN1, Q8TCX5; [1]",4.47
same,pKd,"SCRIB_1, Q14160; [1]",4.91
same,pKd,"TJP1_3, Q07157; [1]",below the threshold
B2,pKd,"CARD11, Q9BXL7; [1]",below the threshold
same,pKd,"CASK, O14936; [1]",below the threshold
same,pKd,"DFNB31_1, Q9P202; [1]",4.63
same,pKd,"DLG2_2, Q15700; [1]",4.15
same,pKd,"DLG2_3, Q15700; [1]",3.98
same,pKd,"DVL3, Q92997; [1]",below the threshold
same,pKd,"FRMPD2_2, Q68DX3; [1]",3.77
same,pKd,"FRMPD4, Q14CM0; [1]",4.64
same,pKd,"GORASP2, Q9H8Y8; [1]",3.82
same,pKd,"GRASP, Q7Z6J2; [1]",4.74
same,pKd,"GRIP1_7, Q9Y3R0; [1]",below the threshold
same,pKd,"IL16_1, Q14005; [1]",3.5
same,pKd,"IL16_4, Q14005; [1]",below the threshold
same,pKd,"Inadl_1, Q8NI35; [1]",3.53
same,pKd,"Inadl_4, Q8NI35; [1]",below the threshold
same,pKd,"LIMK2, P53671; [1]",below the threshold
same,pKd,"LRRC7, Q96NW7; [1]",4.39
same,pKd,"MAGI1_2, Q96QZ7; [1]",3.86
same,pKd,"MAGI2_2, Q86UL8; [1]",4.13
same,pKd,"MAST1, Q9Y2H9; [1]",5.28
same,pKd,"MAST2, Q6P0Q8; [1]",5.92
same,pKd,"MPDZ_12, O75970; [1]",below the threshold
same,pKd,"MPP7, Q5T2T1; [1]",3.56
same,pKd,"NHERF2_2, Q15599; [1]",5.07
same,pKd,"NOS1, P29475; [1]",4.04
same,pKd,"PCLO, Q9Y6V0; [1]",below the threshold
same,pKd,"PTPN3, P26045; [1]",5.11
same,pKd,"RHPN1, Q8TCX5; [1]",4.87
same,pKd,"SCRIB_1, Q14160; [1]",6.07
same,pKd,"TJP1_3, Q07157; [1]",below the threshold
B3,pKd,"CARD11, Q9BXL7; [2]",below the threshold
same,pKd,"CASK, O14936; [2]",below the threshold
same,pKd,"DFNB31_1, Q9P202; [2]",below the threshold
same,pKd,"DLG2_2, Q15700; [2]",below the threshold
same,pKd,"DLG2_3, Q15700; [2]",below the threshold
same,pKd,"DVL3, Q92997; [2]",below the threshold
same,pKd,"FRMPD2_2, Q68DX3; [2]",below the threshold
same,pKd,"FRMPD4, Q14CM0; [2]",below the threshold
same,pKd,"GORASP2, Q9H8Y8; [2]",below the threshold
same,pKd,"GRASP, Q7Z6J2; [2]",below the threshold
same,pKd,"GRIP1_7, Q9Y3R0; [2]",below the threshold
same,pKd,"IL16_1, Q14005; [2]",below the threshold
same,pKd,"IL16_4, Q14005; [2]",below the threshold
same,pKd,"Inadl_1, Q8NI35; [2]",below the threshold
same,pKd,"Inadl_4, Q8NI35; [2]",below the threshold
same,pKd,"LIMK2, P53671; [2]",below the threshold
same,pKd,"LRRC7, Q96NW7; [2]",below the threshold
same,pKd,"MAGI1_2, Q96QZ7; [2]",below the threshold
same,pKd,"MAGI2_2, Q86UL8; [2]",below the threshold
same,pKd,"MAST1, Q9Y2H9; [2]",below the threshold
same,pKd,"MAST2, Q6P0Q8; [2]",below the threshold
same,pKd,"MPDZ_12, O75970; [2]",below the threshold
same,pKd,"MPP7, Q5T2T1; [2]",below the threshold
same,pKd,"NHERF2_2, Q15599; [2]",below the threshold
same,pKd,"NOS1, P29475; [2]",below the threshold
same,pKd,"PCLO, Q9Y6V0; [2]",below the threshold
same,pKd,"PTPN3, P26045; [2]",below the threshold
same,pKd,"RHPN1, Q8TCX5; [2]",below the threshold
same,pKd,"SCRIB_1, Q14160; [2]",below the threshold
same,pKd,"TJP1_3, Q07157; [2]",below the threshold
